Test results: patent US20260256840A1

Columns and labels:
[1] = molecular target: unmodified NY-ESO TCR (wild-type TCR beta constant domain) (human); test: flow cytometry of CD8+ T cells, FITC-BW242/412 against PE NY-ESO dextramer (FIG. 9)
[2] = molecular target: NY-ESO TCR with the D111K modification in the TRBC constant region (human); test: as above
[3] = molecular target: HIT receptor with the D111K mutation in the TCR beta constant region (human); test: anti-TCR bead negative selection of T cells, cell count and flow cytometry (FIG. 7)
[4] = molecular target: NY-ESO TCR with the D111K modification in the TRBC constant region (human); test: anti-TCR negative selection of T cells, flow cytometry

- % of the NY-ESO dextramer-positive population not stained by the anti-TCR antibody [1]: 0%
- % of the NY-ESO dextramer-positive population not stained by the anti-TCR antibody [2]: 60%
- % recovery of HIT+ cells after BW242/412 negative selection (cells not bound by the antibody) [3]: 57.7%
- % recovery post purification (BW242/412 negative selection) [4]: 80%
Substance: BW242/412 anti-TCR antibody
